Assay results: US5928893

Experiments:
[1] = target: human 4-1BB on T cells (human) (UniProt Q07011); experiment: flow cytometry, PBL CD4+ T cells, rheumatoid arthritis patient
[2] = target: human 4-1BB on T cells (human) (UniProt Q07011); experiment: flow cytometry, normal (non-activated) human CD8+ T cells
[3] = target: human 4-1BB on T cells (human) (UniProt Q07011); experiment: flow cytometry, human CD8+ T cells activated with Con A for 24 hours
[4] = target: human 4-1BB on T cells (human) (UniProt Q07011); experiment: flow cytometry, synovial lymphocyte CD4+ T cells, rheumatoid arthritis patient 2
[5] = target: human 4-1BB on T cells (human) (UniProt Q07011); experiment: flow cytometry, PBL CD4+ T cells, rheumatoid arthritis patient 2
[6] = target: human 4-1BB on T cells (human) (UniProt Q07011); experiment: flow cytometry, PBL CD8+ T cells, rheumatoid arthritis patient 2
[7] = target: human 4-1BB on T cells (human) (UniProt Q07011); experiment: flow cytometry, synovial lymphocyte CD4+ T cells, rheumatoid arthritis patient
[8] = target: human 4-1BB on T cells (human) (UniProt Q07011)
[9] = target: human 4-1BB on T cells (human) (UniProt Q07011); experiment: flow cytometry, synovial lymphocyte CD8+ T cells, rheumatoid arthritis patient
[10] = target: human 4-1BB on T cells (human) (UniProt Q07011); experiment: flow cytometry, PBL CD8+ T cells, rheumatoid arthritis patient
[11] = target: human 4-1BB on T cells (human) (UniProt Q07011); experiment: flow cytometry, synovial lymphocyte CD8+ T cells, rheumatoid arthritis patient 2
[12] = target: human 4-1BB on T cells (human) (UniProt Q07011); experiment: flow cytometry, normal (non-activated) human CD4+ T cells
[13] = target: human 4-1BB on T cells (human) (UniProt Q07011); experiment: flow cytometry, human CD4+ T cells activated with Con A for 24 hours

monoclonal antibody 4B4-1-1
% of T Cells Showing Reactivity with 4B4-1-1 [1]: 2.2% | % of CD8+ T cells showing positive responses [2]: 36% | % of CD8+ T cells showing positive responses [3]: 89% | % of T Cells Showing Reactivity with 4B4-1-1 [4]: 38% | % of T Cells Showing Reactivity with 4B4-1-1 [5]: 20% | % of T Cells Showing Reactivity with 4B4-1-1 [6]: 43.5% | % of T Cells Showing Reactivity with 4B4-1-1 [7]: 11.3% | suppression rate (%) of one way-allogeneic mixed lymphocyte reaction (3H-thymidine uptake) [8]: 67% | % of T Cells Showing Reactivity with 4B4-1-1 [9]: 68.1% | % of T Cells Showing Reactivity with 4B4-1-1 [10]: 12.7% | % of T Cells Showing Reactivity with 4B4-1-1 [11]: 42.4% | % of CD4+ T cells showing positive responses [12]: 17% | % of CD4+ T cells showing positive responses [13]: 72%
